Experiments:
Frizzled4 = Frizzled4 (UniProt Q9ULV1); assay: cell-based or functional assay
LRP5 (Zmax1) = LRP5 (Zmax1) (UniProt O75197); assay: cell-based or functional assay
UniProt O75197, sequence (O75197 32-1615 limits assumed): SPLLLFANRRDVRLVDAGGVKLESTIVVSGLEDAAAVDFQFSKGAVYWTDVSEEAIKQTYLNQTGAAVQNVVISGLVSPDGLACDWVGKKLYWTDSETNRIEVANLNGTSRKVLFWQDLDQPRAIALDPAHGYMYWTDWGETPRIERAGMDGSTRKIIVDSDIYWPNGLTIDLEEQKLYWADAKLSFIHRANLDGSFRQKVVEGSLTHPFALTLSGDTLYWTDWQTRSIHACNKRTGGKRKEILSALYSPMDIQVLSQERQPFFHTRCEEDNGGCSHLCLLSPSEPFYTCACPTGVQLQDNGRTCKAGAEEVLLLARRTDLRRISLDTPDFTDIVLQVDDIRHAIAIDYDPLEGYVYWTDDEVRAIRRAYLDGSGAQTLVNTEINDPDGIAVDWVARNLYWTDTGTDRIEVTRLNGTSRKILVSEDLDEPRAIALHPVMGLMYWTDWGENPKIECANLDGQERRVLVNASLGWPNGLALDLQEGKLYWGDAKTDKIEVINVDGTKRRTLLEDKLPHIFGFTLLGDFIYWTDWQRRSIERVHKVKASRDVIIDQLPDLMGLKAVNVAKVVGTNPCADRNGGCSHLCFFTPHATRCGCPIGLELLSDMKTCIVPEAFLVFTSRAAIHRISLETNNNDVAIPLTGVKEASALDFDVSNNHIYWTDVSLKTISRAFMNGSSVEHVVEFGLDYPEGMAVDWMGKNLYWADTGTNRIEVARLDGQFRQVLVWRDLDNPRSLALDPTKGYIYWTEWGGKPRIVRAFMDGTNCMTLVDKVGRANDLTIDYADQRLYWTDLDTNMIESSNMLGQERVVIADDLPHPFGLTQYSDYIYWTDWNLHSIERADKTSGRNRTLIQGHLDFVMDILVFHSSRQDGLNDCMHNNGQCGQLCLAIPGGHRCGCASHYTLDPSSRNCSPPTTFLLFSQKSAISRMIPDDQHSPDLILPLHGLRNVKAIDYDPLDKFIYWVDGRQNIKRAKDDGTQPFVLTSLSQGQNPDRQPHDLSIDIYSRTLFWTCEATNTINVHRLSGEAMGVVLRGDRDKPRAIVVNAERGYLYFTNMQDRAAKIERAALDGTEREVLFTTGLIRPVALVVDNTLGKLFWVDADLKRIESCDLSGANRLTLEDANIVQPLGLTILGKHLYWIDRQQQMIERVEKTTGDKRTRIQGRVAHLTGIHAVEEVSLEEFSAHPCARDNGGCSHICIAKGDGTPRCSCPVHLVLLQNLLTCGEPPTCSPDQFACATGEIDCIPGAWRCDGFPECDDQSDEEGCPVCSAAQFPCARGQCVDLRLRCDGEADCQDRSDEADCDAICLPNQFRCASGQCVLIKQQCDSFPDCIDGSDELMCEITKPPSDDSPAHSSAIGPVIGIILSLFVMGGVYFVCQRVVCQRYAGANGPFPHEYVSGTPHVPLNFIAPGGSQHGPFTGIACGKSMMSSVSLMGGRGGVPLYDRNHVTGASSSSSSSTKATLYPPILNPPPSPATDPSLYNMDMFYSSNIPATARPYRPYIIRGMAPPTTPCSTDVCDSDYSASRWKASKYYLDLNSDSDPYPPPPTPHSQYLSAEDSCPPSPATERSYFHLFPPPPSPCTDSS

Norrin, sequence (Q00604 25-133 limits assumed): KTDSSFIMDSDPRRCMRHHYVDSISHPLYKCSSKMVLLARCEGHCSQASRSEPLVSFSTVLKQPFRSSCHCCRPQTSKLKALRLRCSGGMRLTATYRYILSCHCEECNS
UniProt Q9ULV1, sequence (Q9ULV1 37-537 limits assumed): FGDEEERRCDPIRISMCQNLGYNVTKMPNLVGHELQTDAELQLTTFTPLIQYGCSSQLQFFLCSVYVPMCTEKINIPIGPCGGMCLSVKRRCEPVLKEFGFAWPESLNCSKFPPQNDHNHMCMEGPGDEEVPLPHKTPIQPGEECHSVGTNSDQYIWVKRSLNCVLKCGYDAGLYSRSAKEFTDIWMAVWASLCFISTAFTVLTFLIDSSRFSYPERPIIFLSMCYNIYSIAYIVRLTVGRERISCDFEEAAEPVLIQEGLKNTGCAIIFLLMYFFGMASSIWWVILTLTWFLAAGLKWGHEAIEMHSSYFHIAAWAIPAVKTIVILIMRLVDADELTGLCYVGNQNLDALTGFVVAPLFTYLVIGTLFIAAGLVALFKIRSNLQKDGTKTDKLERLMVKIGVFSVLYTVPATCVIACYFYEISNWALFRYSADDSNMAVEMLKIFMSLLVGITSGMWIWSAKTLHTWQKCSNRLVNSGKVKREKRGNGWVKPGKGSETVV

TCF activity, further enhancement when Fz4, LRP5 and Norrin were all co-transfected in U20S cells (Frizzled4): 2 to 6 fold
TCF response (TCF-luci to renilla), Norrin and Fz4 co-transfected in HEK-293A cells (Frizzled4): 6 fold
TCF-signal, LRP5 co-transfected along with Fz4 and Norrin in HEK-293 cells (Frizzled4): < 16 fold
ratio of TCF-luci to renilla luminescence, Norrin cDNA alone transfected in U20S cells (endogenous Fz4 inferred) (Frizzled4): 2 to 3 fold
ratio of TCF-luci to renilla signal, Fz4 and Norrin co-transfected in U20S cells (Frizzled4): 15 fold
ratio of TCF-luci to renilla luminescence, Norrin and LRP5 co-transfected in U20S cells (LRP5 (Zmax1)): 6 fold
Substance: Norrin (from UniProt Q00604 25-133) (ligand)

Source: patent US20070196872A1
